Source: patent US20240174744A1 (SCIRHOM, published 2024)
Substitutions are numbered along the chain they refer to.

B1: antibody 34 (antibody, V domains shown)
VH: QVTLKESGPGILQPSQTLSLTCSFSGFSLSTFSLGVGWIRQSSGKGLEWLAHIWWDDEKYYNPALKSRLTISKDTSKNQVFLKIANVDAADTATYYCARAYYSKSYYALDYWGQGTSVTVSS
VL: DIQMTQSPSSLSASLGERVSLTCRASQEISGYLSWLQQKPDGTIKRLIYAASTLDSGVPKRFSGSRSGSDYSLAISSLESEDFADYYCLQYANFPFTFGSGTKLEIK
notes: Mouse IgG, kappa light chain; also called clone #34; m34
B2: antibody 16 (antibody, V domains shown)
VH: QVTLKESGPGILQPSQTLSLTCSFSGFSLSTFALGVGWIRQPSGRGLEWLAHIWWDDDKYYNPALKSRLTISKDTSKNHVFLKIANVDTADTATYYCARITTYYYGMDYWGQGTSVTVSS
VL: DIVLSQSPATLSVTPGDSVSLFCRASQSIGNHLHWYQQESHASPRLLIKYASQSISGIPSRFSGSGSGTDFTLSINSVETEDFGMYFCQQSYNWPLTFGAGTKLELK
notes: Mouse IgG, kappa light chain; also called clone #16; m16
B3: antibody 43 (antibody, V domains shown)
VH: QVALKESGPGILQPSQTLSLTCSFSGFSLSTFGMGVGWIRQSSGKGLEWLANIWWDDDKYYNPALKSRLTISKDASKNQAFLKIANVDTADTATYYCARIGNYGSNYWYFDVWGTGTTVTVSS
VL: QIVLTQSPAIMSASPGERVTMTCSANSRISYMYWYQQKPGSSPRLLIYDTSNLASGVPVRFSGSGSGTSYSLTISRMEAEDAATYNCQQWSSYPLTFGAGTKLELK
notes: Mouse IgG, kappa light chain; also called clone #43
B4: antibody 44 (antibody, V domains shown)
VH: B3 VH with A3T, S42P, G44E, N52H, A75T, A80I, A85T, D91E, A98S
VL: QIVLTQSPAVMSASPGEKVTMTCTASSSVYYMYWYQQTPGSSPRLLIYDTSNLASGVPVRFSGSGSGTSYSLTISRMEAEDAATYYCQQWNTYPLTFGAGTKLELK
notes: Mouse IgG, kappa light chain; also called clone #44; m44
B5: antibody 42 (antibody, V domains shown)
VH: B3 VH with A3T, F24L, M34R, S42P, N52H, D58E, A75T, A80V, K83R, G101Q
VL: B3 VL with Q1L, R18K, S24G, N26T, Y33F, L45V, M77V, A82V, N86Y, S91N
notes: Mouse IgG, kappa light chain; also called clone #42; m42
B6: antibody 5 (antibody, V domains shown)
VH: B3 VH with A3T, S42P, N52H, D58E, P63S, D74A, A75T, G101S, D111N
VL: QVVLTQSPALMSASPGEKVTMTCSAGSSVSCMYWYQQKPGSSPRVLIYDTSNLASGVPARFTGSGSGTSYSLTISRMEAEDAASYYCQQWNSYPLTFGAGTKLELK
notes: Mouse IgG, kappa light chain; also called clone #5; purified antibody 5
B7: antibody 22 (antibody, V domains shown)
VH: B3 VH with A3T, S42P, N52H, D58E, P63S, D74A, A75T, A80V, G101S, D111N
VL: B6 VL with C31Y, S84T
notes: Mouse IgG, kappa light chain; also called clone #22; m22
B8: antibody 50 (antibody, V domains shown)
VH: QVQLQQSGAELVRPGASVKVSCKASGYAFSNYLIEWVKQRPGQGLEWIGVINPGSGFTKYNEKFKGKATLTADKSSSTAYMQLSSLTSEDSAVYFCARGLYRAMDYWGQGTSVTVSS
VL: DIQMTQSPASQSASLGESVTITCLASQTIGTWLAWYQQKPGKSPQLLIYAAASLADGVPSRFSGGGSGTKFSFKISSLQAEDFVNYYCQQIYSTPYTFGGGTKLEIK
notes: Mouse IgG, kappa light chain; also called clone #50; purified antibody 50
B9: antibody 3 (antibody, V domains shown)
VH: QVTLKESGPGILQPSQTLSLTCSFSGFSLTTFAMGIGWVRQPSGKGLEWLAHIWWDGEKYNNPVLKSRLTISKDTSKNQVFLRIANVDTPDTATYYCARISSIYYIIDNWGQGTSVTVSS
VL: B2 VL with S5T, D17H, F22S, G30S, H32N, Q38K, E39K, A42E, A51V
notes: Mouse IgG, kappa light chain; also called clone #3; purified antibody 3

These binders were tested against T1, hiR1-FL-WT-T7 (human iRhom1 full length wild type C-terminally tagged with 3 consecutive copies of the T7 … (human, UniProt Q96CC6 1-855)) (assay: FACS on cells of the row human iR1 wild type).
T1 construct: also called human iRhom1 variant expressed by MEF-DKO-hiR1-FL-WT-T7 cells
T1 sequence: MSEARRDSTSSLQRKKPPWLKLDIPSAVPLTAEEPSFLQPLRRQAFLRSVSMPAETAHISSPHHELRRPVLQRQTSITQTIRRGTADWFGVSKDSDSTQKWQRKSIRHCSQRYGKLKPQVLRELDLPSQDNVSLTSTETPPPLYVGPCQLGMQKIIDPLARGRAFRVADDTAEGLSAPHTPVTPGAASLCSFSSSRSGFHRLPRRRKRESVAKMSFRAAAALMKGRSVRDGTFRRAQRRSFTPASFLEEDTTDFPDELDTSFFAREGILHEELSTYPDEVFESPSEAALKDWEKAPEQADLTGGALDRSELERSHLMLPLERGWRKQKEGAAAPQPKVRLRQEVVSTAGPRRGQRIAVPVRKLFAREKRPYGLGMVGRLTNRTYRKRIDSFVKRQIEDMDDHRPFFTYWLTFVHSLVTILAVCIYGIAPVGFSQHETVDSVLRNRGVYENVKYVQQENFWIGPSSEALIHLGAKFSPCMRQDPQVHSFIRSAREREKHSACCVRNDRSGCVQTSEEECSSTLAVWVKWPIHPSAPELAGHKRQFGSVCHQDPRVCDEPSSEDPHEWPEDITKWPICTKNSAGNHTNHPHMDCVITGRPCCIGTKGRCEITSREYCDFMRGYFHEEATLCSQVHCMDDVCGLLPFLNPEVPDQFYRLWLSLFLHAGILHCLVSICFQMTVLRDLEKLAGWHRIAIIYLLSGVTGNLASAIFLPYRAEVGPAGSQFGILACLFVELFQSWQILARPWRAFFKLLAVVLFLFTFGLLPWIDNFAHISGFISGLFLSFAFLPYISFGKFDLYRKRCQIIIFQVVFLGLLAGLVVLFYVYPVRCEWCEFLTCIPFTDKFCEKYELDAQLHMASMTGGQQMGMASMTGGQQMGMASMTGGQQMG

Binder | binding result
B1 | no binding (tested: 3 µg/ml)
B2 | no binding (tested: 3 µg/ml)
B3 | no binding (tested: 3 µg/ml)
B4 | no binding (tested: 3 µg/ml)
B5 | no binding (tested: 3 µg/ml)
B6 | no binding (tested: 3 µg/ml)
B7 | no binding (tested: 3 µg/ml)
B8 | no binding (tested: 3 µg/ml)

The binders below were run against T1, hiR1-FL-WT-T7 (human iRhom1 full length …) (assay: FACS on cells of the row human iR1 wild type, vs human iR2 wild type = 100%).

Binder | grade of loss of binding vs wild type
B1 | 3 grade (3 => 95% loss of binding vs wild type)
B2 | 3 grade (3 => 95% loss of binding vs wild type)
B9 | 3 grade (3 => 95% loss of binding vs wild type)
B3 | 3 grade (3 => 95% loss of binding vs wild type)
B4 | 3 grade (3 => 95% loss of binding vs wild type)
B5 | 3 grade (3 => 95% loss of binding vs wild type)
B6 | 3 grade (3 => 95% loss of binding vs wild type)
B7 | 3 grade (3 => 95% loss of binding vs wild type)
B8 | 3 grade (3 => 95% loss of binding vs wild type)

What follows are binders tested against T2, hiR2-FL-L539A-T7 (human iRhom2 full length L539A, 3 x T7 tag) (human, UniProt Q6PJF5 1-856) (assay: FACS on cells of the row L539A).
T2 sequence: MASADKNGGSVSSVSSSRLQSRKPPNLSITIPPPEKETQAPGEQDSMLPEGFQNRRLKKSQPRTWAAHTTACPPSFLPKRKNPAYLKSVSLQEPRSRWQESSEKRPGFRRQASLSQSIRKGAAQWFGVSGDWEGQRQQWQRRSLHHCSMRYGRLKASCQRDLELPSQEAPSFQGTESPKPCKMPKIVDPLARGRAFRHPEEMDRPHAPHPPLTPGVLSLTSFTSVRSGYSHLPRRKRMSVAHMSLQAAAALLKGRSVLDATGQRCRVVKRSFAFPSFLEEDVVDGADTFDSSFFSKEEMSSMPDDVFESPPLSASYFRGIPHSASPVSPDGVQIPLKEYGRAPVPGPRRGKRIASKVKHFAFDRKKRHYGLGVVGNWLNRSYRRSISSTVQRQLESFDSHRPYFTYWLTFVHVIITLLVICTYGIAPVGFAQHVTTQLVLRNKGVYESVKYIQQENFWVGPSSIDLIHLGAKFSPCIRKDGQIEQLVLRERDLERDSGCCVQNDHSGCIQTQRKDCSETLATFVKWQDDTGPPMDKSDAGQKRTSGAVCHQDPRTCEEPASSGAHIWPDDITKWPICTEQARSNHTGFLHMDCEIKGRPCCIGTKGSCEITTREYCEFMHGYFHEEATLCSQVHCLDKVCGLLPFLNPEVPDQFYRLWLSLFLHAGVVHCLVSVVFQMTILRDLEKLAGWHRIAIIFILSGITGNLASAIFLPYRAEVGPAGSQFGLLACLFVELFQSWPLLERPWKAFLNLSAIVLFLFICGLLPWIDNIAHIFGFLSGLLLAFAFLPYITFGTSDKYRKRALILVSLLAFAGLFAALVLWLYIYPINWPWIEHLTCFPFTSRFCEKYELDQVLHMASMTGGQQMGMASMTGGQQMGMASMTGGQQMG

Binder | binding result
B1 | no binding (tested: 3 µg/ml)
B9 | no binding (tested: 3 µg/ml)
B3 | no binding (tested: 3 µg/ml)
B4 | no binding (tested: 3 µg/ml)
B5 | no binding (tested: 3 µg/ml)
B6 | no binding (tested: 3 µg/ml)
B7 | no binding (tested: 3 µg/ml)

These binders were tested against T3, mouse iR1 wild type (mouse) (assay: FACS on cells expressing mouse iR1 wild type, vs human iR2 wild type = 100%).
T3 construct: wild type; also called mouse iRhom1 wild type; miR1-FL WT
T3 sequence (Q6PIX5 whole entry): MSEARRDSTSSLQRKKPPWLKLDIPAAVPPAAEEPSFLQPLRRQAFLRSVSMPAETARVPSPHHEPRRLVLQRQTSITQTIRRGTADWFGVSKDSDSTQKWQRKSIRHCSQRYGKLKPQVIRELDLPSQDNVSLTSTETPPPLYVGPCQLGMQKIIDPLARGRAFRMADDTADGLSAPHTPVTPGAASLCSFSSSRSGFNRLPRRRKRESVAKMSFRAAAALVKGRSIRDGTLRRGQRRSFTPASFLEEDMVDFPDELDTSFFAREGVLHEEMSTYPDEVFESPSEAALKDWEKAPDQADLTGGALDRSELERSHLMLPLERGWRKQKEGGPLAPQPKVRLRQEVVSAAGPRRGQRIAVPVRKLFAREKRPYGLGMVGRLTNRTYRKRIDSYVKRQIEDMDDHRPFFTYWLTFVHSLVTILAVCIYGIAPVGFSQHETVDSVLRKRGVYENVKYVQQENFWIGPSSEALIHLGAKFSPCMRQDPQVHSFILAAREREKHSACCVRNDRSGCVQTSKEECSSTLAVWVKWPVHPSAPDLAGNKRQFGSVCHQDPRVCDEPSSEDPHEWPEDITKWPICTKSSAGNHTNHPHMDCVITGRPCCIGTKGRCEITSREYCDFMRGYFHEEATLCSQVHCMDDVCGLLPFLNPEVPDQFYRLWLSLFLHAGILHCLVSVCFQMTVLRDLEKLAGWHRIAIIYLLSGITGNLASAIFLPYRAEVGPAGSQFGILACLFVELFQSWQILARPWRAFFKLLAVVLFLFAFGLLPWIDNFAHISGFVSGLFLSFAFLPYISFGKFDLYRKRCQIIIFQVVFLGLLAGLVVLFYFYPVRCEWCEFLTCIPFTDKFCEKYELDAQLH

Binder | grade of loss of binding vs wild type
B1 | 3 grade (3 => 95% loss of binding vs wild type)
B2 | 3 grade (3 => 95% loss of binding vs wild type)
B9 | 3 grade (3 => 95% loss of binding vs wild type)
B3 | 3 grade (3 => 95% loss of binding vs wild type)
B4 | 3 grade (3 => 95% loss of binding vs wild type)
B5 | 3 grade (3 => 95% loss of binding vs wild type)
B6 | 3 grade (3 => 95% loss of binding vs wild type)
B7 | 3 grade (3 => 95% loss of binding vs wild type)
B8 | 3 grade (3 => 95% loss of binding vs wild type)
